This is an account of results in the supplement of paper PMC9170038.

Data set [1] concerns MS2 coat protein. Nature of the data set: apparent KD of MS2 coat protein, switch ON state; designed switch direction (-1 OFF switch, 1 ON switch): 1; higher = weaker reporter binding. Particulars: FMN input: 0 or 200 uM; Eterna round: R93 (includes R88 designs). The essentials:
(§1)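 Each design's apparent KD comes from the median of binding-curve fits to its normalised clusters. Those clusters carried RNA switches transcribed on-chip from Illumina sequencing clusters. SNAP-549-labelled MS2 coat protein was titrated onto them in twofold steps (0.7 or 1.5 nM to 3 µM; per step 0.8–1.5 h down to 10–20 min). Conditions were 100 mM Tris-HCl pH 7.5, 80 mM KCl, 4 mM MgCl2, without or with constant ligand.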

Data set [2] has as its system MS2 coat protein. The data set is described as follows: apparent KD of MS2 coat protein, switch OFF state (with FMN for OFF switches, without FMN for ON switches); designed switch direction (-1 OFF switch, 1 ON switch): 1; higher = weaker reporter binding. Particulars: FMN input: 0 or 200 uM; Eterna round: R93 (includes R88 designs). The essentials: as §1

Take “AAAAGACAUGAGGAUCACCCAUGUAAAAACUUGAGAGGAUAUGCUUGAAAAACAUGCUAUGCAGAAGGCUCUAGUC [SS1 - 16]”: the figures for the “apparent KD of MS2 coat protein” value with MS2 coat protein [1] and in the data set with MS2 coat protein [2] were 0.0213 µM and 0.0282 µM, respectively.
The matching figures for “AAAAGACAUGAGGAUCACCCAUGUAGGCCAAAGCAAGGAUAUAGGCCACAGGGACGUGGACUAGAAGGUGCACGGC [Xereedes]”: 0.0219 µM and 0.107 µM.
The matching figures for “AAAAGACAUGAGGAUCACCCAUGUCAAGACAUAGGAGGAUAUGUCGUGAAAAAAGACUUGGCAGAAGGCCUUUGUC [SS1 - 47]”: 0.0143 µM and 0.0161 µM.
Turning to “AAAAGACAUGAGGAUCACCCAUGUCGAAAGACAUGAGGAUAUGUACAGACUUCGGUCUGUACAGAAGGCAUGAAAA [SS1 - 1067]”, the “apparent KD of MS2 coat protein” value with MS2 coat protein [1] stood at 0.0171 µM; in the data set on MS2 coat protein [2], 0.0687 µM.
As for “AAAAGACAUGAGGAUCACCCAUGUCGAAAGACAUGAGGAUAUGUACAGACUUCGGUCUGUACAGAAGGCAUGUAAA [SS1 - 1068]”, the results for the “apparent KD of MS2 coat protein” value in the data set with MS2 coat protein [1] and in the data set on MS2 coat protein [2] were 0.0167 µM and 0.0503 µM, respectively.
For “AAAAGACAUGAGGAUCACCCAUGUCUUCGGACAUGAGGAUAUGUACAGACUUCGGUCUGUACAGAAGGCAUGAAAA [SS1 - 1065]”, in that order: 0.0185 µM and 0.0483 µM.
For “AAAAUAAAAAGGCAGGAUAUCCAAAAUAAAACAUGAGGAUCACCCAUGUAAAUAAAAAUAAAGUGGGAGAAGGGUUAAAAAUAAAA [High Roller3]”, in that order: 0.0325 µM and 0.0468 µM.
For “AAAAUAAAAUAAAAGGAUAUAAAAAAAUAUACAUGAGGAUCACCCAUGUAUAUAAAAAUAAAAUAAAAGAAGGAAUAAAAAUAAA [SS2 506: MS2 6]”, in that order: 0.0103 µM and 0.0111 µM.
“AAAAUACAUGAGGAUCACCCAUGUGAAAAUAUGGAAGGAUAUACGAAAAAUAAAUAAAACGUAGAAGGUCUAAAAA [SS! 1 MT 3]”: the “apparent KD of MS2 coat protein” value with MS2 coat protein [1] turned out to be 0.0238 µM; with MS2 coat protein [2] it was 0.0384 µM.
The matching figures for “AAAAUACAUGAGGAUCACCCAUGUGAAAAUAUGGAAGGAUAUCAAUGCAAAAAAAAGCAUUGAGAAGGUCCAAAAA [SS! 1 MT 8]”: 0.0167 µM and 0.0269 µM.
For “AAAAUACAUGAGGAUCACCCAUGUGAAAAUAUGGGAGGAUAUCAUGGAAAAAAAAAAACAUGAGAAGGCCCAAAAA [SS! 1 MT 10]”, in that order: 0.0248 µM and 0.104 µM.
The matching figures for “AAAAUACAUGAGGAUCACCCAUGUGAGAAAAACGCAGGAUAUGCAAAAAAAAAAAAAAAAGCAGAAGGGUGAAAAA [SameState1-I]”: 0.0548 µM and 0.103 µM.
Take “AAACAGCACAGGUAGGAUAUGUAGGGUGGUACAUGAGGAUCACCCAUGUAUCCACCCUUCGAAAGGCAGAAGGGCCUGCCGCUGC [Cealaes]”: the “apparent KD of MS2 coat protein” value in the data set on MS2 coat protein [1] is 0.0154 µM; in the data set with MS2 coat protein [2], 0.0166 µM.
For “AAACCACAUGAGGAUCACCCAUGUAAAAUAUACAUAGGAUAUGCGAAAAGAAACAAAGAAGCAGAAGGGUGAAAAA [75%, Ex sub1, 16]”, in that order: 0.0364 µM and 0.0321 µM.
The matching figures for “AAACCACAUGAGGAUCACCCAUGUAAAAUUAUGGGAGGAUAUACUAGAAGAAACAAAAUAGUAGAAGGCCUAAAAA [75%, Ex sub1, 33]”: 0.0159 µM and 0.0742 µM.
For “AAACCACAUGAGGAUCACCCAUGUAAGAUAUACAUAGGAUAUGCGAAAAGAAACAAAGAAGCAGAAGGGUGAAAAA [75%, Ex sub1, 14]”, in that order: 0.172 µM and 0.0728 µM.
Consider “AAACCACAUGAGGAUCACCCAUGUAGAAAUAUGGGAGGAUAUACGAAAACGAAAGUCAAAGUAGAAGGCCUAAAAG [saturn 2]”, for which the “apparent KD of MS2 coat protein” value in the data set with MS2 coat protein [1] stood at 0.0367 µM; in the data set on MS2 coat protein [2], 0.129 µM.
Consider “AAACCACAUGAGGAUCACCCAUGUCAAGAGAGACUAGGAUAUCUGAAUUAAUUAAAUUAAGGAGAAGGAGUGAAAA [71%, Same state of confusion2, 3]”, for which the entries for the “apparent KD of MS2 coat protein” value in the data set with MS2 coat protein [1] and in the data set on MS2 coat protein [2] were 0.0528 µM and 0.179 µM, respectively.
For the sequence “AAACCACAUGAGGAUCACCCAUGUGUAAAAAAUACAGGAUAUGGAAACACGAAAGUGAAACCAGAAGGGUGAAAAA [77%, Mat - Mod of Eli, 30]”, the “apparent KD of MS2 coat protein” value with MS2 coat protein [1] is 0.019 µM; in the data set on MS2 coat protein [2], 0.0243 µM.
